Results on 2 molecules are retold here after paper PMC6797804, “Histone H3K23-specific acetylation by MORF is coupled to H3K14 acylation” (Nature Communications, 2019).

The test relates to promoters of target genes in 293T cells. As to the kind of experiment: ChIP in transfected 293T cells (FLAG-MORFN WT or F287A). In kind it is cell-based. As to the method:
Chromatin preparation from MEF, U2OS (ATCC HTB-96) and 293T cells were done as previously described. […] Next, 50 μl of Protein G Dynabeads for FLAG ChIP or 25 μl of Protein A Dynabeads was added to each sample and incubated for 4 h at 4 °C. The beads were washed extensively and eluted with 1% SDS and 0.1 M NaHCO3. Cross-linked samples were reversed by heating overnight at 65 °C in the presence of 0.2 M NaCl. Samples were then treated with RNase A and proteinase K for 2 h, and DNA was recovered by phenol-chloroform and ethanol precipitation. Quantitative real-time PCR corrected for primer efficiencies in the linear range were performed using SYBR Green I (Roche) on a LightCycler 480 (Roche).

The mark [1] stands for this setting: corrected for total H3, two independent experiments.

B1: FLAG-MORF F287A: FLAG-tagged MORFN F287A mutant defective in histone H3 binding, expressed in 293T cells (protein, UniProt Q8WYB5 1-716, looked up, variant F287A)
chain: MVKLANPLYTEWILEAIQKIKKQKQRPSEERICHAVSTSHGLDKKTVSEQLELSVQDGSVLKVTNKGLASYKDPDNPGRFSSVKPGTFPKSAKGSRGSCNDLRNVDWNKLLRRAIEGLEEPNGSSLKNIEKYLRSQSDLTSTTNNPAFQQRLRLGAKRAVNNGRLLKDGPQYRVNYGSLDGKGAPQYPSAFPSSLPPVSLLPHEKDQPRADPIPICSFCLGTKESNREKKPEELLSCADCGSSGHPSCLKFCPELTTNVKALRWQCIECKTCSACRVQGRNADNMLACDSCDRGFHMECCDPPLSRMPKGMWICQVCRPKKKGRKLLHEKAAQIKRRYAKPIGRPKNKLKQRLLSVTSDEGSMNAFTGRGSPGRGQKTKVCTTPSSGHAASGKDSSSRLAVTDPTRPGATTKITTTSTYISASTLKVNKKTKGLIDGLTKFFTPSPDGRRSRGEIIDFSKHYRPRKKVSQKQSCTSHVLATGTTQKLKPPPSSLPPPTPISGQSPSSQKSSTATSSPSPQSSSSQCSVPSLSSLTTNSQLKALFDGLSHIYTTQGQSRKKGHPSYAPPKRMRRKTELSSTAKSKAHFFGKRDIRSRFISHSSSSSWGMARGSIFKAIAHFKRTTFLKKHRMLGRLKYKVTPQMGTPSPGKGSLTDGRIKPDQDDDTEIKINIKQESADVNVIGNKDVVTEEDLDVFKQAQELSWEKIECESGVEDC
modifications: residues 1-716 FLAG tag
Take B1: where the note is “compared to WT FLAG-MORF, two independent experiments”, the “association with promoters (FLAG ChIP)” value is reported as “decreased association”. Besides, under setting [1], the “H3K14ac level on promoters (ChIP)” value is “H3K14ac level was unaffected by the mutation” and the “H3K23ac level on promoters (ChIP)” value is recorded as “expression of WT FLAG-MORF but not F287A mutant increases H3K23ac level”.

B2: WT FLAG-MORF: FLAG-tagged wild-type MORFN (residues 1–716 of MORF) expressed in 293T cells (protein, UniProt Q8WYB5 1-716, looked up, fragment)
chain: MVKLANPLYTEWILEAIQKIKKQKQRPSEERICHAVSTSHGLDKKTVSEQLELSVQDGSVLKVTNKGLASYKDPDNPGRFSSVKPGTFPKSAKGSRGSCNDLRNVDWNKLLRRAIEGLEEPNGSSLKNIEKYLRSQSDLTSTTNNPAFQQRLRLGAKRAVNNGRLLKDGPQYRVNYGSLDGKGAPQYPSAFPSSLPPVSLLPHEKDQPRADPIPICSFCLGTKESNREKKPEELLSCADCGSSGHPSCLKFCPELTTNVKALRWQCIECKTCSACRVQGRNADNMLFCDSCDRGFHMECCDPPLSRMPKGMWICQVCRPKKKGRKLLHEKAAQIKRRYAKPIGRPKNKLKQRLLSVTSDEGSMNAFTGRGSPGRGQKTKVCTTPSSGHAASGKDSSSRLAVTDPTRPGATTKITTTSTYISASTLKVNKKTKGLIDGLTKFFTPSPDGRRSRGEIIDFSKHYRPRKKVSQKQSCTSHVLATGTTQKLKPPPSSLPPPTPISGQSPSSQKSSTATSSPSPQSSSSQCSVPSLSSLTTNSQLKALFDGLSHIYTTQGQSRKKGHPSYAPPKRMRRKTELSSTAKSKAHFFGKRDIRSRFISHSSSSSWGMARGSIFKAIAHFKRTTFLKKHRMLGRLKYKVTPQMGTPSPGKGSLTDGRIKPDQDDDTEIKINIKQESADVNVIGNKDVVTEEDLDVFKQAQELSWEKIECESGVEDC
modifications: FLAG tag
notes: FLAG-tagged wild-type MORFN (residues 1–716 of MORF) expressed in 293T cells
As for B2, the “H3K23ac level on promoters (ChIP)” value under setting [1] was “increases H3K23ac level on these promoters”.
